Drawing on US20250011440A1, this text covers fold increase in FcRn affinity (vs wild type) and percent of the binding affinity of the wild type for two substances.

The target in test [1] is human FcRn-His-GST (FcRn fused to a His-tag and glutathione S transferase) (human) (UniProt P55899). The test can be described thus: AlphaScreen competition vs wild-type Fc, pH 6.0 (FIG. 13).
For test [2] the target is unchanged. The experiment in a line: AlphaScreen competition, pH 6.0 (FIG. 13).

Sequence of UniProt P55899 (P55899 24-297, chain 1 of 2): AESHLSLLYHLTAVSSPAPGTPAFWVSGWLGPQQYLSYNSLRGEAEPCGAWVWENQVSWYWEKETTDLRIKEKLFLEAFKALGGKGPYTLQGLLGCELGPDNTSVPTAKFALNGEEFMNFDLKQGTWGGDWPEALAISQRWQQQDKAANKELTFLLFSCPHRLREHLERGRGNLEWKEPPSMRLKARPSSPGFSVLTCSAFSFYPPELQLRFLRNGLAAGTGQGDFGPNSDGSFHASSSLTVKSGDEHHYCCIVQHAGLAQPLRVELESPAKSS
Sequence of UniProt P55899 (P61769 21-119, chain 2 of 2, further chain): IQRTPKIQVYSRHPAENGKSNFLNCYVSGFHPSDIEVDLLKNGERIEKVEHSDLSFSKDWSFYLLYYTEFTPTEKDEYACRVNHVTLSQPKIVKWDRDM

In test [1], “IgG1 Fc variant N286# (deletion of N286; taken as in the anti-HER2 antibody trastuzumab)” registered a fold increase in FcRn affinity (vs wild type) of 2 fold. “IgG1 Fc variant ^254N (Asn inserted after position 254; taken as in the anti-HER2 antibody trastuzumab)” showed a percent of the binding affinity of the wild type in test [2] of 1.1%.
